Laboratory results from publication PMC11396517, “Differences in the Renal Accumulation of Radiogallium-Labeled (Glu)14 Peptides Containing Different Optical Isomers of Glutamic Acid” (Molecules, 2024).
Like-named read-outs stand apart in the source and are kept apart here.

Experiments:
[1] = hydroxyapatite beads; Figure 2; cited from earlier work
Protocol: To determine the affinity of the compounds for hydroxyapatite, the hydroxyapatite-binding assay was performed. The hydroxyapatite-binding rates of [^67Ga]Ga-HBED-CC-(L-Glu)14, [^67Ga]Ga-HBED-CC-(D-Glu)14, [^67Ga]Ga-HBED-CC-(DL-Glu)14, and [^67Ga]Ga-HBED-CC-(D-Glu-L-Glu)7 are illustrated in Figure 2. The binding profiles of each tracer were similar.

[2] = Hydroxyapatite-binding assay; conditions: hydroxyapatite beads 1, 2.5, 10, 25 mg/mL in Tris/HCl-buffered saline 50 mM pH 7.4, ligand 19.5 µM, 1 h, room temperature, gamma counter, four samples; Figure 2
Protocol: Hydroxyapatite-binding assays were performed according to procedures described previously. Briefly, hydroxyapatite beads (Bio-Gel; Bio-Rad, Hercules, CA, USA) were suspended in Tris/HCl-buffered saline (50 mM, pH 7.4) at 1 mg/mL, 2.5 mg/mL, 10 mg/mL, and 25 mg/mL. For the solutions of [^67Ga]Ga-HBED-CC-(D-Glu)14, [^67Ga]Ga-HBED-CC-(DL-Glu)14, and [^67Ga]Ga-HBED-CC-(D-Glu-L-Glu)7, the ligand concentrations were adjusted to 19.5 µM by adding the corresponding HBED-CC conjugated Glu peptides. A solution of each [^67Ga]Ga-HBED-CC-(D-Glu)14, [^67Ga]Ga-HBED-CC-(DL-Glu)14, and [^67Ga]Ga-HBED-CC-(D-Glu-L-Glu)7 (200 µL each) was added to 200 μL of the hydroxyapatite suspension, and the samples were gently shaken for 1 h at room temperature. After centrifugation at 10,000× g for 5 min, the radioactivity of the supernatants was measured using an auto well gamma counter (ARC-7010B, ALOKA Co., Ltd., Tokyo, Japan). […] The ratios of binding were determined as follows:Hydroxyapatite binding (%) = (1 − [sample supernatant radioactivity]/[control supernatant radioactivity]) × 100

in vivo = test: in vivo; parameters: species or system ddY mice; conditions: male, ddY, mouse, iv, 37 kBq/100 uL, total radioactivity
Protocol: Biodistribution experiments were performed after an intravenous administration of each tracer solution diluted in saline (37 kBq/100 μL) to 6-week-old male ddY mice (weight, 27–32 g, Japan SLC, Inc., Hamamatsu, Japan). Four mice were sacrificed at each time point for each compound at 10, 60, and 180 min post-injection. The tissues of interest were dissected and weighed. Complete left femurs were isolated as representative bone samples, radioactivity counts were determined using an auto well gamma counter (ARC-7010, ALOKA Co., Ltd.), and counts were corrected for the background radiation and physical decay that occurred during counting.

Compound | Hydroxyapatite binding profile (in words) [1] | Hydroxyapatite binding profile (in words) [2] | tissue uptake dose at 10 min (in vivo) [%ID] | tissue uptake dose at 1 h (in vivo) [%ID] | tissue uptake dose at 3 h (in vivo) [%ID]
[^67Ga]Ga-N,N′-bis-[2-hydroxy-5-(carboxyethyl)benzyl]ethylenediamine-N,N′-diacetic acid-conjugated (L-Glu)14 [[^67Ga]Ga-HBED-CC-(L-Glu)14] | similar |  |  |  | 
O=C(O)CCc1ccc(O)c(CN(CCN(CC(=O)O)Cc2cc(CCC(=O)N[C@H](CCC(=O)O)C(=O)N[C@H](CCC(=O)O)C(=O)N[C@H](CCC(=O)O)C(=O)N[C@H](CCC(=O)O)C(=O)N[C@H](CCC(=O)O)C(=O)N[C@H](CCC(=O)O)C(=O)N[C@H](CCC(=O)O)C(=O)N[C@H](CCC(=O)O)C(=O)N[C@H](CCC(=O)O)C(=O)N[C@H](CCC(=O)O)C(=O)N[C@H](CCC(=O)O)C(=O)N[C@H](CCC(=O)O)C(=O)N[C@H](CCC(=O)O)C(=O)N[C@H](CCC(=O)O)C(=O)O)ccc2O)CC(=O)O)c1 [[67Ga]Ga-HBED-CC-(D-Glu)14, metal not drawn] |  | similar | 0.57 | 0.51 | 0.76
O=C(O)CCc1ccc(O)c(CN(CCN(CC(=O)O)Cc2cc(CCC(=O)N[C@H](CCC(=O)O)C(=O)N[C@@H](CCC(=O)O)C(=O)N[C@H](CCC(=O)O)C(=O)N[C@@H](CCC(=O)O)C(=O)N[C@H](CCC(=O)O)C(=O)N[C@@H](CCC(=O)O)C(=O)N[C@H](CCC(=O)O)C(=O)N[C@@H](CCC(=O)O)C(=O)N[C@H](CCC(=O)O)C(=O)N[C@@H](CCC(=O)O)C(=O)N[C@H](CCC(=O)O)C(=O)N[C@@H](CCC(=O)O)C(=O)N[C@H](CCC(=O)O)C(=O)N[C@@H](CCC(=O)O)C(=O)O)ccc2O)CC(=O)O)c1 [[67Ga]Ga-HBED-CC-(D-Glu-L-Glu)7, metal not drawn] |  | similar | 0.32 | 0.84 | 0.48
